The text below walks through data of PMC4608796.

Series [1] has as its target T1, CodY-His5 (Bacillus subtilis) (UniProt P39779).
T1 sequence: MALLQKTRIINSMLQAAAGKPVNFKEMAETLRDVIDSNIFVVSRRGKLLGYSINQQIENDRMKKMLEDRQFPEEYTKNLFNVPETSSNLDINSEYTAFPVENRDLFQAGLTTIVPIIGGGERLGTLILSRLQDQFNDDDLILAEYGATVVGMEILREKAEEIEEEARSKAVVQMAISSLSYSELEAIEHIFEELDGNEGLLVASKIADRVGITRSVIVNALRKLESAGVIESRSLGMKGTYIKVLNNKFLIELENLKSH
Description: EMSA. The note with it: CodY assays with 10 mM ILV (plus 2 mM GTP in Fig 2 footprints); Kd = protein monomer concentration shifting 50% of DNA; buffer, salt, pH and temperature not …. (In general: A gel shift assay detects complexes by their altered migration in electrophoresis.)

Series [2] concerns the target T2, His6-ScoC (Bacillus subtilis) (UniProt P11065).
T2 sequence: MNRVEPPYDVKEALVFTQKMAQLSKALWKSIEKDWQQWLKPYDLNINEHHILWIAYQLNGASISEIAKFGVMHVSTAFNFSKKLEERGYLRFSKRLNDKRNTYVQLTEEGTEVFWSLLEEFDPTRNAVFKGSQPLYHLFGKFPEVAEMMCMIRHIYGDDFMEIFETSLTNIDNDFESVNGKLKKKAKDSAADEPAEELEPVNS
The series can be described thus: EMSA. The note with it: CodY assays with 10 mM ILV (plus 2 mM GTP in Fig 2 footprints); Kd = protein monomer concentration shifting 50% of DNA; buffer, salt, pH and temperature not ….

For orientation: Kd means the free concentration of one partner at which half of the binding sites on the other are occupied at equilibrium, for simple one-to-one binding. With “TCGTTTCGTCATATTATCTGACAATTAATTGACAGAATATTTTAACATAATTATTAGGAGGATT (double strand) [braB64]”, the results for the Kd in series [1] and in series [2] were 5 nM and 150 nM, respectively.

Consider braB144p+ (gel shift), for which the Kd in series [1] was determined as 4 nM.

As to braB156p+ (gel shift), in series [1], the Kd worked out at 75 nM.

Regarding braB242p+, the Kd in series [1] amounted to 3 nM.
